{"source": "patent US20230020089A1", "key": {"[1]": {"target": "[…] presented by HLA-A*0201 (EBV; human)", "assay": "cell-based or functional assay"}, "[2]": {"target": "[…] presented by HLA-A*0201 (HCMV; human)", "assay": "cell-based or functional assay"}}, "data": [{"substance": "TCR recognizing […] presented by A*0201 (PDB #3REV)", "values": [{"measurement": "luciferase induction, reporter T cells + U-87 APCs, short cassette 9AA (relative to uninfected controls)", "setting": "[1]", "result": 12}, {"measurement": "luciferase induction, reporter T cells + U-87 APCs, short cassette 17AA (relative to uninfected controls)", "setting": "[1]", "result": 10.3}, {"measurement": "luciferase induction, reporter T cells + U-87 APCs, short cassette 25AA (relative to uninfected controls)", "setting": "[1]", "result": 14.6}, {"measurement": "luciferase induction, reporter T cells + U-87 APCs, short cassette AAY (relative to uninfected controls)", "setting": "[1]", "result": 11.3}, {"measurement": "luciferase induction, reporter T cells + U-87 APCs, short cassette DPP (relative to uninfected controls)", "setting": "[1]", "result": 1.1}, {"measurement": "luciferase induction, reporter T cells + U-87 APCs, short cassette RR (relative to uninfected controls)", "setting": "[1]", "result": 8.5}, {"measurement": "luciferase induction, reporter T cells + U-87 APCs, targeting cassette A", "setting": "[1]", "result": 6.1}, {"measurement": "luciferase induction, reporter T cells + U-87 APCs, targeting cassette B", "setting": "[1]", "result": 6.3}, {"measurement": "luciferase induction, reporter T cells + U-87 APCs, targeting cassette C", "setting": "[1]", "result": 7.6}, {"measurement": "luciferase induction, reporter T cells + U-87 APCs, targeting cassette D", "setting": "[1]", "result": 7}, {"measurement": "luciferase induction, reporter T cells + U-87 APCs, targeting cassette E", "setting": "[1]", "result": 5.9}, {"measurement": "luciferase induction, reporter T cells + U-87 APCs, targeting cassette F", "setting": "[1]", "result": 3.7}, {"measurement": "luciferase induction, reporter T cells + U-87 APCs, targeting cassette G", "setting": "[1]", "result": 7.6}, {"measurement": "luciferase induction, reporter T cells + U-87 APCs, targeting cassette H", "setting": "[1]", "result": 5.4}, {"measurement": "luciferase induction, reporter T cells + U-87 APCs, targeting cassette J", "setting": "[1]", "result": 6.4}, {"measurement": "luciferase induction, reporter T cells, short cassette AAY", "setting": "[1]", "result": 11.3}]}, {"substance": "TCR recognizing […] presented by A*0201 (PDB #5D2N)", "values": [{"measurement": "luciferase induction, reporter T cells + U-87 APCs, short cassette 9AA (relative to uninfected controls)", "setting": "[2]", "result": 33.6}, {"measurement": "luciferase induction, reporter T cells + U-87 APCs, short cassette 17AA (relative to uninfected controls)", "setting": "[2]", "result": 42.8}, {"measurement": "luciferase induction, reporter T cells + U-87 APCs, short cassette 25AA (relative to uninfected controls)", "setting": "[2]", "result": 42.3}, {"measurement": "luciferase induction, reporter T cells + U-87 APCs, short cassette AAY (relative to uninfected controls)", "setting": "[2]", "result": 24.5}, {"measurement": "luciferase induction, reporter T cells + U-87 APCs, short cassette DPP (relative to uninfected controls)", "setting": "[2]", "result": 0.9}, {"measurement": "luciferase induction, reporter T cells + U-87 APCs, short cassette RR (relative to uninfected controls)", "setting": "[2]", "result": 21.7}, {"measurement": "luciferase induction, reporter T cells + U-87 APCs, targeting cassette A", "setting": "[2]", "result": 32.5}, {"measurement": "luciferase induction, reporter T cells + U-87 APCs, targeting cassette B", "setting": "[2]", "result": 31.8}, {"measurement": "luciferase induction, reporter T cells + U-87 APCs, targeting cassette C", "setting": "[2]", "result": 29.1}, {"measurement": "luciferase induction, reporter T cells + U-87 APCs, targeting cassette D", "setting": "[2]", "result": 29.1}, {"measurement": "luciferase induction, reporter T cells + U-87 APCs, targeting cassette E", "setting": "[2]", "result": 28.4}, {"measurement": "luciferase induction, reporter T cells + U-87 APCs, targeting cassette F", "setting": "[2]", "result": 20.4}, {"measurement": "luciferase induction, reporter T cells + U-87 APCs, targeting cassette G", "setting": "[2]", "result": 35}, {"measurement": "luciferase induction, reporter T cells + U-87 APCs, targeting cassette H", "setting": "[2]", "result": 30.3}, {"measurement": "luciferase induction, reporter T cells + U-87 APCs, targeting cassette J", "setting": "[2]", "result": 38.1}, {"measurement": "luciferase induction, reporter T cells, short cassette AAY", "setting": "[2]", "result": 24.5}]}]}
